The values below come from PMC5696595, “Therapeutic Application of Phage Capsule Depolymerases against K1, K5, and K30 Capsulated E. coli in Mice” (Frontiers in Microbiology, 2017).

As a reminder, the stoichiometry N is the number of molecules, sites or subunits per partner or assembly.

What all share (assay): SEC; analytical size exclusion on Superose 6 10/300 GL, AKTA FPLC, 4°C, 25 mM sodium phosphate, 150 mM NaCl, pH 7.5, 0.4 ml/min; molecular weights estimated with high molecular weight calibration kit; 200 μg to 1 mg protein loaded
The target in data set [1] is K1F depolymerase (coliphage K1F).
For data set [2], the target named is K1H depolymerase (coliphage K1H).
In data set [3] the target is K5 depolymerase (coliphage K1-5).
Data set [4] concerns the molecule itself.

Regarding K1F depolymerase (enzyme), the stoichiometry N in data set [1] is 3.

Turning to K1H depolymerase (enzyme), in data set [2], the stoichiometry N was 3.

As for K5 depolymerase (enzyme), the stoichiometry N in data set [3] is 3.

B1: K30 gp42 (natural protein)
chain: MLDKLNQPKGSTIGVLKDGRTTQEAIDELTNDVTGSITTTRYASSASQALFPKLIDKMTAYRHGVSGFQDKFRIYGYGSSVGNGATIGGNSSPNTPVAKFFEHFQRTVNKAGIYPFEYSNKSVDGSNINDFLNREWPATVATGVFPDLAVFAYGMNDFPSAQYNAGMTFGANGFKQRLRNAIQKVRDAGGDVVLLTTPHPNIEEYSWELPSSIDMVWPQFAAKPVAGDVLIPPVSQSNVSFDFMGKRITQGVRFLRGNDAMREVAVEMGCVLIDVEKYWFEAVGKYGNVLLFDRVPAMQTVHPNLLGHQQSYWRAIEEFFNNVDSSGWIAPDAKLNQTLDVGGNALNPAKMEADVDLQANGIRQRAFVRRDKSGRVMEELTQDSRVKRTSYTVSDPTVSAPGYSLTWDEWFTRTKGLFTSGETLGIPVNNRTEGRLLVTAWISGQTGWTQLEDYLVSNREGVVLVSKIGSLDNTPPAGGTGTNGQRLFTVSTSANNVVVNILSDNATVKFKLDTFGA
As to B1, in data set [4], the “stoichiometry N” value is 3.

B2: K30 gp41 (enzyme)
chain: MDQDIKTVIQYPVGATEFDIPFDYLSRKFVRVSLVTGDNRRLLSNITEYRYVSKTRVKLLVETAGFDRVEIRRFTSASERIVDFSDGSVLRAADLNVSQIQSAHIAEEARDAALMAMPQDDVGNLDARNRRIVRLAPGIDSTDAINKNQLDTTLGEAGGILSQVKDTQKDIQNYIQKFGDDTAMVRGVNWVYNGGSAIGGETSFIIDKSAPVFAVPYIEVNGSRQFRDWQYEYDPATKRVTLVKPLEAGDFVVCLTTENKLPLEDLLASTGGADSIGKAGGGTVQDGLDATIHGTDVHRDTVTPGKLDTLLVYNGTNAGRDLRGHEFVMPHGTFSATRILRTRGISAAESKYTGFTWRGQGSSFTKLVHPATGGQGDIAFMDYLKDVTMSGFMMDNTALGQGTSNQDTRNGQFWIRHSVDSYFDDLRFAGADALTFCLDHCKNIYSTNLKVDYQLRYPTGTGKSPLIVGDYSEQCMFIGGYVKTVSPDGTIKYAGDLADNDQADDTKWAFINLYGLTFEQKPNSNACMWQEGEGAPSNAHFIGMNYINNGVGHGVSEKAVGTDIGSTFRQAQVRAVWNRAEYISIGSHFINNDAKYPAGTGGAGTAAAGGVHNDNAKFTSLVGDYFRGNFADYTDYTGASGVNPENSTHITNAKLTSIIRTSSSSTSQHLAIVNCQLTSAGRISGGGNGRLHVSVVASHCVGPLGQFGHGQSETYLDVINSTFTAAGSTEAMITQSGVGNISFANSTFRDYIRVVDGSHTRVTFRNCTFYTCTFTEDDRKARYVNCRFISCTDAPDSFGLNFAADSLDRPSSLRVNVTLTAGGSYTFPAWVLQGRGAYFINVGGNGANLPACAGIIGKSSATGSGVWTPQWESTPSSIVVSWPSNGYITVTATTAGNYTIGVH
Consider B2, for which, in data set [4], the “stoichiometry N” value is 3.
